6 molecules from patent publication US11396668B2, “Methods of producing nor-opioid and nal-opioid benzylisoquinoline alkaloids” (priority 2016, dated 2022) can be followed below.

In experiment [1] the test system is tyrosine hydroxylase activity (wild-type RnTyrH). In words: L-DOPA and BH4 levels with antioxidant added to growth media of engineered yeast. It is filed as cell-based. The conditions noted are these: 2 mM in the media. From the text: A yeast strain containing the following mutations to central metabolism (as described in U.S. Provisional Patent Application Ser. No. 61/899,496): ARO4^FBR, ΔZWF1, and GPD-TKL1 promoter replacement and expressing four chromosomally integrated genes from R. norvegicus that generate the cosubstrate tetrahydrobiopterin (pyruvoyl tetrahydropterin synthase, PTPS; sepiapterin reductase, SepR; pterin 4a-carbinolamine dehydratase, PCD; dihydropteridine reductase, QDHPR) as well as wild-type RnTyrH from a low-copy plasmid under the control of the GPD promoter was grown in selective defined media (YNB) lacking tyrosine with 2% galactose and 2 mM ascorbic acid for 96 hours.
The production of L-DOPA was measured in the media via LC-MS/MS in MRM mode with the transition 198 m/z to 152 m/z. […] In addition, the concentration BH4 intermediates were measured with LC-MS/MS in MRM mode with the following transitions: B, 238 m/z to 178 m/z; BH2, 240 m/z to 165 m/z and BH4, 242 m/z to 166 m/z.
Accordingly, FIG. 11A illustrates addition of antioxidants to culture media that improves L-DOPA production by tyrosine hydroxylase in engineered yeast strains and (B) addition of antioxidants to culture media that increase BH4 levels, in accordance with embodiments of the invention. […] The production of L-DOPA was measured in the media via LC-MS/MS in MRM mode with the transition 198 m/z to 152 m/z. […]

For experiment [2], the system named is L-DOPA production by tyrosine hydroxylase. In words: L-DOPA production with DHFR coexpressed with wild-type RnTyrH in engineered yeast. The following applies: YNB lacking tyrosine, 2% dextrose, 96 hours. It counts as cell-based. From the text:
Dihydrofolate reductase (DHFR) from R. norvegicus was yeast codon optimized, synthesized, and cloned into a low-copy plasmid under the control of a GPD promoter. DHFR was coexpressed with wild-type RnTyrH (low-copy plasmid with a GPD promoter) in a yeast strain containing the following mutations to central metabolism (as described in U.S. Provisional Patent Application Ser. No. 61/899,496): ARO4^FBR, ΔZWF1, and GPD-TKL1 promoter replacement. In addition, the strain expressed four chromosomally integrated genes from R. norvegicus that generate the cosubstrate tetrahydrobiopterin (pyruvoyl tetrahydropterin synthase, PTPS; sepiapterin reductase, SepR; pterin 4a-carbinolamine dehydratase, PCD; dihydropteridine reductase, QDHPR). The strains expressing DHFR and wild-type RnTyrH were grown in selective defined media (YNB) lacking tyrosine with 2% dextrose for 96 hours, and the production of L-DOPA was measured in the media via LC-MS/MS in MRM mode with the transition 198 m/z to 152 m/z. Expression of DHFR with wild-type RnTyrH increases L-DOPA production by 1.8-fold, as illustrated in FIG. 10. As such, FIG. 10 illustrates coexpression of dihydrofolate reductase (DHFR) that improves L-DOPA production by tyrosine hydroxylase in engineered yeast strains, in accordance with embodiments of the invention.

For experiment [3], the system named is oxycodone. Briefly: Oxycodone 3-O-demethylase activity of CODM in crude yeast cell lysate. It counts as biochemical, yeast strain W303. The conditions noted are these: 0.1 mM oxycodone, 10 mM 2-oxoglutarate, 30° C., 3 h, LC-MS. The procedure:
FIG. 29 illustrates the functional expression of CODM, in accordance with embodiments of the invention. In particular, FIG. 29 illustrates the functional expression of CODM with oxycodone 3-O-demethylase activity in yeast. The yeast codon-optimized CODM gene was integrated into the genome of yeast strain W303 and cultured in synthetic complete media for 16 hours. The parent W303 strain was also cultured in synthetic complete media for 16 hours as a no-enzyme control. The cells were pelleted and washed with 1 mL breaking buffer (100 mM Tris-HCl pH 7.5, 10% glycerol, 14 mM 2-mercaptoethanol, lx protease inhibitor). Cells were resuspended in 200 μL breaking buffer and lysed by glass bead disruption. The crude cell lysates were incubated with 10 mM ascorbic acid, 0.5 mM iron(II) sulfate, 0.1 mM oxycodone as substrate and 10 mM 2-oxoglutarate as cosubstrate in a total volume of 100 μL. 4 mM DTT was also added as a reducing agent to keep iron in the Fe^2+ state. The reaction was incubated at 30° C. for 3 h and quenched by diluting it 1:1 in ethanol with 0.1% acetic acid. […] The mass-charge ratio (m/z 302), retention time, and mass spectrum of oxymorphone produced by the yeast strain matched that of a purchased oxymorphone standard (see FIG. 29).

Experiment [4] deals with thebaine. In words: Thebaine N-demethylase activity of BM3 variants in yeast. It is filed as cell-based, yeast strains (CEN.PK2). The conditions noted are these: 100 μM thebaine, 20 hours, buffers pH 5.0-8.5. How it is done: (§1) Specifically, BM3 variants 4H9, 7A1, and 8F11 (listed in Table 6) were integrated into the genomes of individual yeast strains (CEN.PK2) and incubated in citric acid-phosphate buffer (pH 5.0, 6.0, 7.0) and Tris-HCl buffer (pH 7.5, 8.0, 8.5) with 100 μM thebaine for 20 hours. A genetic construct which was identical except for the exclusion of the BM3 open reading frame was integrated to generate a no-enzyme control strain. […] The northebaine generated by the yeast strains was quantified by liquid chromatography mass spectrometry. The mass spectrum of northebaine (m/z 298) lacked the m/z 58 product ion consistent with a demethylated nitrogen (see FIG. 27C).
as §1, with “FIG. 27A, FIG. 27B and FIG. 27C illustrate the functional expression of BM3 variants, in accordance with embodiments of the invention. […] FIG. 27B illustrates the functional expression of BM3 variants with thebaine N-demethylase activity in yeast.” for “Specifically,”, “8F11” for “8F11 (listed in Table 6)”

Where a chain is given by its changes, count along the chain named.

As to `O=C1O[C@H]([C@@H](O)CO)C(O)=C1O` [ascorbic acid], in experiment [1] (96 hours), the “improvement of L-DOPA production with wild-type RnTyrH” value turned out to be 1.8 fold. Besides, in experiment [1] (LC-MS/MS), the “BH4 in the media” value is recorded as “increases BH4 in the media”.

B1: DHFR: Dihydrofolate reductase from R. norvegicus, yeast codon optimized, expressed from low-copy plasmid (protein, UniProt Q920D2 1-187, looked up)
Dihydrofolate reductase: MVRPLNCIVAVSQNMGIGKNGDLPWPLLRNEFKYFQRMTTTSSVEGKQNLVIMGRKTWFSIPEKNRPLKDRINIVLSRELKEPPQGAHFLAKSLDDALKLIEQPELASKVDMVWVVGGSSVYQEAMNQPGHLRLFVTRIMQEFESDTFFPEIDLEKYKLLPEYPGVLSEIQEEKGIKYKFEVYEKKD
As for B1, the “increase of L-DOPA production” value in experiment [2] was 1.8 fold.

B2: CODM: codeine O-demethylase, yeast codon-optimized gene integrated into yeast strain W303 (protein, listed as Papaver somniferum)
chain: METPILIKLGNGLSIPSVQELAKLTLAEIPSRYTCTGESPLNNIGASVTDDETVPVIDLQNLLSPEPVVGKLELDKLHSACKEWGFFQLVNHGVDALLMDNIKSEIKGFFNLPMNEKTKYGQQDGDFEGFGQPYIESEDQRLDWTEVFSMLSLPLHLRKPHLFPELPLPFRETLESYLSKMKKLSTVVFEMLEKSLQLVEIKGMTDLFEDGLQTMRMNYYPPCPRPELVLGLTSHSDFSGLTILLQLNEVEGLQIRKEERWISIKPLPDAFIVNVGDILEIMTNGIYRSVEHRAVVNSTKERLSIATFHDSKLESEIGPISSLVTPETPALFKRGRYEDILKENLSRKLDGKSFLDYMRM
Regarding B2, the “oxymorphone generated from oxycodone (3-O-demethylation)” value in experiment [3] is recorded as “detected by LC-MS”.

B3: 4H9: BM3 variant (Bacillus megaterium cytochrome P450) listed in Table 6 (protein)
chain: MTIKEMPQPKTFGELKNLPLLNTDKPVQALMKIADELGEIFKFEAPGRVTRYLSSQRLIKEACDESRFDKNLSQALKFARDFAGDGLVTSWTHEKNWKKAHNILLPSFSQQAMKGYHAMMVDIAVQLVQKWERLNADEHIEVSEDMTRLTLDTIGLCGFNYRFNSFYRDQPHPFIISMVRAADEVMNKLQRANPDDPAYDENKRQFQEDIKVMNDLVDKIIADRKARGEQSDDLLTQMLNGKDPETGEPLDDGNIRYQIIAFLIAGHETTSGLLSFALYFLVKNPHVLQKVAEEAARVLVDPVPSYKQVKQLKYVGMVLNEALRLWPTAPAFSLYAKEDTVLGGEYPLEKGDEVMVLIPQLHRDKTVWGDDVEEFRPERFENPSAIPQHAFKPFGNGQRACIGQQFALHEATLVLGMMLKHFDFEDHTNYELDIKETATLKPKGFVVKAKSKKIPLGGIPSPSTEQSAKKVRKKAENAHNTPLLVLYGSNMGTAEGTARDLADIAMSKGFAPQVATLDSHAGNLPREGAVLIVTASYNGHPPDNAKQFVDWLDQASADEVKGVRYSVFGCGDKNWATTYQKVPAFIDETLAAKGAENIADRGEADASDDFEGTYEEWREHMWSDVAAYFNLDIENSEDNKSTLSLQFVDSAADMPLAKMHGAFSTNVVASKELQQPGSARSTRHLEIELPKEASYQEGDHLGVIPRNYEGIVNRVTARFGLDASQQIRLEAEEEKLAHLPLAKTVSVEELLQYVELQDPVTRTQLRAMAAKTVCPPHKVELEALLEKQAYKEQVLAKRLTMLELLEKYPACEMKFSEFIALLPSIRPRYYSISSSPRVDEKQASITVSVVSGEAWSGYGEYKGIASNYLAELQEGDTITCFISTPQSEFTLPKDPETPLIMVGPGTGVAPFRGFVQARKQLKEQGQSLGEAHLYFGCRSPHEDYLYQEELENAQSEGIITLHTAFSRMPNQPKTYVQHVMEQDGKKLIELLDQGAHFYICGDGSQMAPAVEATLMKSYADVHQVSEADARLWLQQLEEKGRYAKDVWAG
Consider B3, for which, in experiment [4], the “northebaine production from thebaine (N-demethylation)” value (from here on “northebaine production from thebaine”) is “produced northebaine at all tested pH levels above 7.0”.

B4: 8F11: BM3 variant (Bacillus megaterium cytochrome P450) listed in Table 6 (protein)
chain: B3 chain with A182L, A261T
For the molecule B4, the “northebaine production from thebaine” value in experiment [4] is “produced northebaine at all tested pH levels above 7.0”.

B5: 7A1: BM3 variant (Bacillus megaterium cytochrome P450) listed in Table 6 (protein)
chain: B3 chain with L76A, M178A, A438L
In the case of B5, the “northebaine production from thebaine” value in experiment [4] is “produced northebaine at all tested pH levels above 7.0”.
